The chains are these.
B1: Multifunctional methyltransferase subunit TRM112-like protein (Homo sapiens), Q9UI30 (parent)
chain: MKLLTHNLLSSHVRGVGSRGFPLRLQATEVRICPVEFNPNFVARMIPKVEWSAFLEAADNLRLIQVPKGPVEGYEENEEFLRTMHHLLLEVEVIEGTLQCPESGRMFPISRGIPNMLLSEEETES
partner: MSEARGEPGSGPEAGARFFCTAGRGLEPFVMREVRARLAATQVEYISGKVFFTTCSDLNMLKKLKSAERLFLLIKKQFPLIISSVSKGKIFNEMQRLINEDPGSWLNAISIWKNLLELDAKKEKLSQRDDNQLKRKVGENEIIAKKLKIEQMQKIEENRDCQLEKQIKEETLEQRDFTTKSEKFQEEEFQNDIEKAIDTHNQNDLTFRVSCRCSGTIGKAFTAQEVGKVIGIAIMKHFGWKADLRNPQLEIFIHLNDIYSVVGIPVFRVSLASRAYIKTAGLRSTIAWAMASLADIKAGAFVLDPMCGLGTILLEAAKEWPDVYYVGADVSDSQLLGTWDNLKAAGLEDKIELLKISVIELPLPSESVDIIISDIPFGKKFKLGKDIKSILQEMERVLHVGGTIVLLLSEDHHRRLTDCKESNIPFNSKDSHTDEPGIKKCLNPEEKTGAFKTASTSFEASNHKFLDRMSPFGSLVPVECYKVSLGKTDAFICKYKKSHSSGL
B2: Multifunctional methyltransferase subunit TRM112-like protein (Homo sapiens), Q9UI30 (parent)
chain: B1 chain
partner: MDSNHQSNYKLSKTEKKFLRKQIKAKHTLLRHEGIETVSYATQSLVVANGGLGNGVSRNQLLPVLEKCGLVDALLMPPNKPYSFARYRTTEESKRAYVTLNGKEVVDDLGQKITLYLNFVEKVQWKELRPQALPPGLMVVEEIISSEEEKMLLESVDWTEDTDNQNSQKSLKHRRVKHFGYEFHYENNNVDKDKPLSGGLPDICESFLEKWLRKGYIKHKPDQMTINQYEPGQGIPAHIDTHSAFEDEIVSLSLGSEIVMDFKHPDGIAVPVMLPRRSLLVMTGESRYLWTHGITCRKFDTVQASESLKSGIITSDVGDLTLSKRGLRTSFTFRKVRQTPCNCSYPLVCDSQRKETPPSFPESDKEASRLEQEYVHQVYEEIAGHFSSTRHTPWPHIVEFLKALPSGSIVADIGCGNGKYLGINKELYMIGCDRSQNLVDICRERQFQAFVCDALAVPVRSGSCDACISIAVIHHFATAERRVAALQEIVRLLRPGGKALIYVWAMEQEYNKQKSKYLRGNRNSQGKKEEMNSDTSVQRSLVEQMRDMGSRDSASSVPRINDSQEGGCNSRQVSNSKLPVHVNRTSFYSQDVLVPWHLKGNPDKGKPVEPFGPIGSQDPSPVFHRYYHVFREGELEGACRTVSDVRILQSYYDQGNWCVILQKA
B3: Multifunctional methyltransferase subunit TRM112-like protein (Homo sapiens), Q9UI30 (parent)
chain: B1 chain
partner: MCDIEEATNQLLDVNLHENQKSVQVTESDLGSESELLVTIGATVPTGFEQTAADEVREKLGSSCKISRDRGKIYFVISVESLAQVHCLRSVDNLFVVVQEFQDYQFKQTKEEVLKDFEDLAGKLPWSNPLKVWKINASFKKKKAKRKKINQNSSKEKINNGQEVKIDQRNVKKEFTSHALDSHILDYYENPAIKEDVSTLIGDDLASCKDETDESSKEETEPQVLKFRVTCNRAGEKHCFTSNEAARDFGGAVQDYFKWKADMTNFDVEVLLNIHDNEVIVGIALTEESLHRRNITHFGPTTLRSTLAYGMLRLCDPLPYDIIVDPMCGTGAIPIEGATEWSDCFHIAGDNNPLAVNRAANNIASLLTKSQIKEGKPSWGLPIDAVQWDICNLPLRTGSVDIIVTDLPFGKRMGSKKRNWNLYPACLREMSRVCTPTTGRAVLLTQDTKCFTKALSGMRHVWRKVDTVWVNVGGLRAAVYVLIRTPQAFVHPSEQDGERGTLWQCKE
B4: Multifunctional methyltransferase subunit TRM112-like protein (Homo sapiens), Q9UI30 (parent)
chain: B1 chain
partner: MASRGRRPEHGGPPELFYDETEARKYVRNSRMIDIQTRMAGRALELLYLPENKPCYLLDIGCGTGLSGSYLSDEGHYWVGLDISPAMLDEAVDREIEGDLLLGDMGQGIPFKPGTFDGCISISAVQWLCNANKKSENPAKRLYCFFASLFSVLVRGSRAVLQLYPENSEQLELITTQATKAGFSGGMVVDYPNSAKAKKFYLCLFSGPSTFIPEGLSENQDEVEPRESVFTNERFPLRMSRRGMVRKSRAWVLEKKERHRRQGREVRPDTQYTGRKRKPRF
B5: Multifunctional methyltransferase subunit TRM112-like protein (Homo sapiens), Q9UI30 (parent)
chain: B1 chain
partner: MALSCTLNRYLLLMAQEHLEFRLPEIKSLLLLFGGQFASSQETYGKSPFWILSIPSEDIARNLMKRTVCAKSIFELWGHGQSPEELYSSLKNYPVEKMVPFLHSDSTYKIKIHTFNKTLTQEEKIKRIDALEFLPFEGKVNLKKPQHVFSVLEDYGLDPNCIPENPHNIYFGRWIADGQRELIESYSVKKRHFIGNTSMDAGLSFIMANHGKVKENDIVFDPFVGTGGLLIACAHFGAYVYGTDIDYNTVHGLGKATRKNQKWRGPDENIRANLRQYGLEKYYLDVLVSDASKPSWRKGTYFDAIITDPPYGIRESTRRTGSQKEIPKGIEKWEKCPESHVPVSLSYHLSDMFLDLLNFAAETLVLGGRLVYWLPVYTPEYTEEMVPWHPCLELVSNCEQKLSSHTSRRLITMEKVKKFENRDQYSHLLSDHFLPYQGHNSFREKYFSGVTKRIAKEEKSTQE

Variants of B1 are the subject of one assay. Conditions: with thum2_human THUMPD2, Q9BTF0.
In the case of M45A, the “effect of a mutation on the interaction” value is “disrupting interaction strength”. As to K48A;E92A, the “effect of a mutation on the interaction” value is given as “disrupting interaction strength”. Consider L8W, for which the “effect of a mutation on the interaction” value is “disrupting interaction strength”. On to T5A, for which the “effect of a mutation on the interaction” value is reported as “disrupting interaction strength”.

In the case of K48A, the “effect of a mutation on the interaction” value is listed as “disrupting interaction strength”. Same read-out and setting: next, F107A: “disrupting interaction strength”. On the same count and under the same terms, the result for E50A reads “with no effect”. The same measure, in the same setting: the result for S10F reads “disrupting interaction strength”; that for I113A, “disrupting interaction strength”; that for E92A, “disrupting interaction strength”.

Variants of B2 are the subject of another assay. Conditions: with alkb8_human ALKBH8, Q96BT7.
For the variant E50A, the “effect of a mutation on the interaction” value is on record as “with no effect”. Regarding K48A, the “effect of a mutation on the interaction” value is “with no effect”. As to F107A, the “effect of a mutation on the interaction” value is recorded as “decreasing interaction strength”.

K48A;E92A: the “effect of a mutation on the interaction” value is reported as “disrupting interaction strength”.

As to E92A, the “effect of a mutation on the interaction” value was “decreasing interaction strength”. The same measure, in the same setting: the result for I113A reads “with no effect”; that for S10F, “with no effect”. The same measure, in the same setting: the result for L8W reads “with no effect”; that for T5A, “disrupting interaction strength”. M45A: the “effect of a mutation on the interaction” value is “disrupting interaction strength”.

Another assay covers variants of B3. Conditions: with thum3_human THUMPD3, Q9BV44.
As to K48A;E92A, the “effect of a mutation on the interaction” value is “disrupting interaction strength”.

Take F107A: the “effect of a mutation on the interaction” value is listed as “disrupting interaction strength”. Regarding E92A, the “effect of a mutation on the interaction” value is listed as “disrupting interaction strength”. As for S10F, the “effect of a mutation on the interaction” value is “with no effect”.

With T5A, the “effect of a mutation on the interaction” value is given as “disrupting interaction strength”. Same read-out and setting: the result for K48A reads “disrupting interaction strength”; that for L8W, “disrupting interaction strength”.

Consider I113A, for which the “effect of a mutation on the interaction” value was “disrupting interaction strength”.

With M45A, the “effect of a mutation on the interaction” value is listed as “disrupting interaction strength”. With E50A, the “effect of a mutation on the interaction” value is given as “with no effect”.

The next assay covers variants of B4. The following applies: with bud23_human BUD23, O43709.
Regarding E92A, the “effect of a mutation on the interaction” value is reported as “with no effect”. The same measure, in the same setting: the result for I113A reads “with no effect”; that for F107A, “disrupting interaction strength”. Still for that read-out and setting: the result for K48A;E92A reads “with no effect”; that for M45A, “with no effect”. For the variant E50A, the “effect of a mutation on the interaction” value was “with no effect”. The same measure, in the same setting: the result for K48A reads “with no effect”; that for T5A, “decreasing interaction strength”; that for S10F, “with no effect”.

L8W: the “effect of a mutation on the interaction” value is listed as “with no effect”.

The next assay covers variants of B5. Conditions: with trm11_human TRMT11, Q7Z4G4.
For M45A, the “effect of a mutation on the interaction” value is “with no effect”. Same read-out and setting: the result for I113A reads “with no effect”.

With K48A, the “effect of a mutation on the interaction” value is listed as “with no effect”.

With F107A, the “effect of a mutation on the interaction” value is listed as “decreasing interaction strength”. For L8W, the “effect of a mutation on the interaction” value is “with no effect”.

Turning to E92A, the “effect of a mutation on the interaction” value is “decreasing interaction strength”. Same read-out and setting: next, T5A: “disrupting interaction strength”; E50A: “with no effect”. In the case of K48A;E92A, the “effect of a mutation on the interaction” value is on record as “disrupting interaction strength”.

For the variant S10F, the “effect of a mutation on the interaction” value is “with no effect”.

The values are drawn from IntAct's records for PubMed 34948388.
